{"source": "patent US20220040297A1", "about": "(Chugai, published 2022)", "binders": {"B1": {"name": "GLS3000 S27eA (antibody, name in Kabat numbering, V domains shown)", "VH": "QVQLVESGGGVVQPGRSLRLSCAASGFTFSNAWMHWVRQAPGKGLEWVAQIKAKSNNYATYYAESVKGRFTISRDDSKNSLYLQMNSLKTEDTAVYYCRYVHYGAYYGVDAWGQGTTVTVSS", "VL": "DIVMTQSPLSLPVTPGEPASISCRSSQSLVHANRNTYLHWYQQKPGQAPRLLIYKVSNRFSGVPDRFSGSGSGTDFTLKISRVEAEDVGVYYCGQGTQVPYTFGQGTKLEIK", "notes": "one-arm format as m2"}, "B2": {"name": "GLS3000 F55A (antibody, name in Kabat numbering, V domains shown)", "VH": "B1 VH", "VL": "B1 VL with A32S, F60A", "notes": "one-arm format as m2"}, "B3": {"name": "GLS3000 F55D (antibody, name in Kabat numbering, V domains shown)", "VH": "B1 VH", "VL": "B1 VL with A32S, F60D", "notes": "one-arm format as m2"}, "B4": {"name": "GLS3000 F55E (antibody, name in Kabat numbering, V domains shown)", "VH": "B1 VH", "VL": "B1 VL with A32S, F60E", "notes": "one-arm format as m2"}, "B5": {"name": "GLS3000 F55G (antibody, name in Kabat numbering, V domains shown)", "VH": "B1 VH", "VL": "B1 VL with A32S, F60G", "notes": "one-arm format as m2"}, "B6": {"name": "GLS3000 F55H (antibody, name in Kabat numbering, V domains shown)", "VH": "B1 VH", "VL": "B1 VL with A32S, F60H", "notes": "one-arm format as m2"}, "B7": {"name": "GLS3000 F55I (antibody, name in Kabat numbering, V domains shown)", "VH": "B1 VH", "VL": "B1 VL with A32S, F60I", "notes": "one-arm format as m2"}, "B8": {"name": "GLS3000 F55K (antibody, name in Kabat numbering, V domains shown)", "VH": "B1 VH", "VL": "B1 VL with A32S, F60K", "notes": "one-arm format as m2"}, "B9": {"name": "GLS3000 F55L (antibody, name in Kabat numbering, V domains shown)", "VH": "B1 VH", "VL": "B1 VL with A32S, F60L", "notes": "one-arm format as m2"}, "B10": {"name": "GLS3000 F55M (antibody, name in Kabat numbering, V domains shown)", "VH": "B1 VH", "VL": "B1 VL with A32S, F60M", "notes": "one-arm format as m2"}, "B11": {"name": "GLS3000 F55N (antibody, name in Kabat numbering, V domains shown)", "VH": "B1 VH", "VL": "B1 VL with A32S, F60N", "notes": "one-arm format as m2"}, "B12": {"name": "GLS3000 F55P (antibody, name in Kabat numbering, V domains shown)", "VH": "B1 VH", "VL": "B1 VL with A32S, F60P", "notes": "one-arm format as m2"}, "B13": {"name": "GLS3000 F55Q (antibody, name in Kabat numbering, V domains shown)", "VH": "B1 VH", "VL": "B1 VL with A32S, F60Q", "notes": "one-arm format as m2"}, "B14": {"name": "GLS3000 F55R (antibody, name in Kabat numbering, V domains shown)", "VH": "B1 VH", "VL": "B1 VL with A32S, F60R", "notes": "one-arm format as m2"}, "B15": {"name": "GLS3000 F55S (antibody, name in Kabat numbering, V domains shown)", "VH": "B1 VH", "VL": "B1 VL with A32S, F60S", "notes": "one-arm format as m2"}, "B16": {"name": "GLS3000 F55T (antibody, name in Kabat numbering, V domains shown)", "VH": "B1 VH", "VL": "B1 VL with A32S, F60T", "notes": "one-arm format as m2"}, "B17": {"name": "GLS3000 F55V (antibody, name in Kabat numbering, V domains shown)", "VH": "B1 VH", "VL": "B1 VL with A32S, F60V", "notes": "one-arm format as m2"}, "B18": {"name": "GLS3000 F55W (antibody, name in Kabat numbering, V domains shown)", "VH": "B1 VH", "VL": "B1 VL with A32S, F60W", "notes": "one-arm format as m2"}, "B19": {"name": "GLS3000 F55Y (antibody, name in Kabat numbering, V domains shown)", "VH": "B1 VH", "VL": "B1 VL with A32S, F60Y", "notes": "one-arm format as m2"}, "B20": {"name": "GLS3000 G89A (antibody, name in Kabat numbering, V domains shown)", "VH": "B1 VH", "VL": "B1 VL with A32S, G94A", "notes": "one-arm format as m2"}, "B21": {"name": "GLS3000 G89D (antibody, name in Kabat numbering, V domains shown)", "VH": "B1 VH", "VL": "B1 VL with A32S, G94D", "notes": "one-arm format as m2"}, "B22": {"name": "GLS3000 G89E (antibody, name in Kabat numbering, V domains shown)", "VH": "B1 VH", "VL": "B1 VL with A32S, G94E", "notes": "one-arm format as m2"}, "B23": {"name": "GLS3000 G89F (antibody, name in Kabat numbering, V domains shown)", "VH": "B1 VH", "VL": "B1 VL with A32S, G94F", "notes": "one-arm format as m2"}, "B24": {"name": "GLS3000 G89H (antibody, name in Kabat numbering, V domains shown)", "VH": "B1 VH", "VL": "B1 VL with A32S, G94H", "notes": "one-arm format as m2"}, "B25": {"name": "GLS3000 G89I (antibody, name in Kabat numbering, V domains shown)", "VH": "B1 VH", "VL": "B1 VL with A32S, G94I", "notes": "one-arm format as m2"}, "B26": {"name": "GLS3000 G89K (antibody, name in Kabat numbering, V domains shown)", "VH": "B1 VH", "VL": "B1 VL with A32S, G94K", "notes": "one-arm format as m2"}, "B27": {"name": "GLS3000 G89L (antibody, name in Kabat numbering, V domains shown)", "VH": "B1 VH", "VL": "B1 VL with A32S, G94L", "notes": "one-arm format as m2"}, "B28": {"name": "GLS3000 G89M (antibody, name in Kabat numbering, V domains shown)", "VH": "B1 VH", "VL": "B1 VL with A32S, G94M", "notes": "one-arm format as m2"}, "B29": {"name": "GLS3000 G89N (antibody, name in Kabat numbering, V domains shown)", "VH": "B1 VH", "VL": "B1 VL with A32S, G94N", "notes": "one-arm format as m2"}, "B30": {"name": "GLS3000 G89P (antibody, name in Kabat numbering, V domains shown)", "VH": "B1 VH", "VL": "B1 VL with A32S, G94P", "notes": "one-arm format as m2"}, "B31": {"name": "GLS3000 G89Q (antibody, name in Kabat numbering, V domains shown)", "VH": "B1 VH", "VL": "B1 VL with A32S, G94Q", "notes": "one-arm format as m2"}, "B32": {"name": "GLS3000 G89R (antibody, name in Kabat numbering, V domains shown)", "VH": "B1 VH", "VL": "B1 VL with A32S, G94R", "notes": "one-arm format as m2"}}, "molecular_target": "CD3ε homodimer protein (human, UniProt P07766 23-126, limits assumed)", "sequence (P07766 23-126 limits assumed)": "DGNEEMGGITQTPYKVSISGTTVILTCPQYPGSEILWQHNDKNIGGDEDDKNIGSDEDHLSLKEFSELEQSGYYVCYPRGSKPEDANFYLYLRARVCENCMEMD", "test": "SPR, immobilized CD3ε homodimer;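 note: biacore T200 surface plasmon resonance at 25 °C, antibody variants flowed as analytes over amine-coupled CD3ε homodimer on a CM4 chip, variant binding amount divided by that of GLS3000 antibody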", "note": "Numbering of substitutions follows the chain as printed.", "data": [{"binder": "B1", "values": [{"measurement": "ratio of amounts bound (vs GLS3000)", "result": 1.03}]}, {"binder": "B2", "values": [{"measurement": "ratio of amounts bound (vs GLS3000)", "result": 1.13}]}, {"binder": "B3", "values": [{"measurement": "ratio of amounts bound (vs GLS3000)", "result": 0.65}]}, {"binder": "B4", "values": [{"measurement": "ratio of amounts bound (vs GLS3000)", "result": 0.72}]}, {"binder": "B5", "values": [{"measurement": "ratio of amounts bound (vs GLS3000)", "result": 1.31}]}, {"binder": "B6", "values": [{"measurement": "ratio of amounts bound (vs GLS3000)", "result": 0.94}]}, {"binder": "B7", "values": [{"measurement": "ratio of amounts bound (vs GLS3000)", "result": 0.82}]}, {"binder": "B8", "values": [{"measurement": "ratio of amounts bound (vs GLS3000)", "result": 1.33}]}, {"binder": "B9", "values": [{"measurement": "ratio of amounts bound (vs GLS3000)", "result": 0.76}]}, {"binder": "B10", "values": [{"measurement": "ratio of amounts bound (vs GLS3000)", "result": 0.8}]}, {"binder": "B11", "values": [{"measurement": "ratio of amounts bound (vs GLS3000)", "result": 0.98}]}, {"binder": "B12", "values": [{"measurement": "ratio of amounts bound (vs GLS3000)", "result": 1.16}]}, {"binder": "B13", "values": [{"measurement": "ratio of amounts bound (vs GLS3000)", "result": 0.91}]}, {"binder": "B14", "values": [{"measurement": "ratio of amounts bound (vs GLS3000)", "result": 1.31}]}, {"binder": "B15", "values": [{"measurement": "ratio of amounts bound (vs GLS3000)", "result": 0.69}]}, {"binder": "B16", "values": [{"measurement": "ratio of amounts bound (vs GLS3000)", "result": 0.41}]}, {"binder": "B17", "values": [{"measurement": "ratio of amounts bound (vs GLS3000)", "result": 0.71}]}, {"binder": "B18", "values": [{"measurement": "ratio of amounts bound (vs GLS3000)", "result": 0.69}]}, {"binder": "B19", "values": [{"measurement": "ratio of amounts bound (vs GLS3000)", "result": 0.92}]}, {"binder": "B20", "values": [{"measurement": "ratio of amounts bound (vs GLS3000)", "result": 1.13}]}, {"binder": "B21", "values": [{"measurement": "ratio of amounts bound (vs GLS3000)", "result": 0.33}]}, {"binder": "B22", "values": [{"measurement": "ratio of amounts bound (vs GLS3000)", "result": 0.26}]}, {"binder": "B23", "values": [{"measurement": "ratio of amounts bound (vs GLS3000)", "result": 1.09}]}, {"binder": "B24", "values": [{"measurement": "ratio of amounts bound (vs GLS3000)", "result": 0.7}]}, {"binder": "B25", "values": [{"measurement": "ratio of amounts bound (vs GLS3000)", "result": 1.07}]}, {"binder": "B26", "values": [{"measurement": "ratio of amounts bound (vs GLS3000)", "result": 0.4}]}, {"binder": "B27", "values": [{"measurement": "ratio of amounts bound (vs GLS3000)", "result": 0.94}]}, {"binder": "B28", "values": [{"measurement": "ratio of amounts bound (vs GLS3000)", "result": 0.52}]}, {"binder": "B29", "values": [{"measurement": "ratio of amounts bound (vs GLS3000)", "result": 0.8}]}, {"binder": "B30", "values": [{"measurement": "ratio of amounts bound (vs GLS3000)", "result": 0.35}]}, {"binder": "B31", "values": [{"measurement": "ratio of amounts bound (vs GLS3000)", "result": 0.38}]}, {"binder": "B32", "values": [{"measurement": "ratio of amounts bound (vs GLS3000)", "result": 0.19}]}]}
